Source: patent US20080058263A1 (published 2008)

Tests used:
Experiment in all cases: receptor-Fc IP
VEGFR-2-Fc = molecular target: T1, VEGFR-2-Fc (UniProt P35968 20-322)
T1 construct: domain: first 3 Ig domains; conditioned supernatant of 293T cells; also called VEGFR-2-Fc fusion protein; not shown: Fc fragment of the pIg vector
In short: (§1)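 fusion protein at 400 ng/ml in an IP mix (PBS, 1.5% BSA, 0.06% Tween 20, 3 μg/ml heparin) was combined with sample supernatant at a 1:2 ratio. Bound ligand captured by immunoprecipitation with pentahistidine antibody.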

VEGFR-3-Fc = molecular target: T2, VEGFR-3-Fc (UniProt P35916 25-328)
T2 construct: domain: first three Ig domains; conditioned supernatant of 293T cells; also called VEGFR-3-Fc fusion protein; not shown: Fc fragment of the pIg vector
T2 sequence (looked up): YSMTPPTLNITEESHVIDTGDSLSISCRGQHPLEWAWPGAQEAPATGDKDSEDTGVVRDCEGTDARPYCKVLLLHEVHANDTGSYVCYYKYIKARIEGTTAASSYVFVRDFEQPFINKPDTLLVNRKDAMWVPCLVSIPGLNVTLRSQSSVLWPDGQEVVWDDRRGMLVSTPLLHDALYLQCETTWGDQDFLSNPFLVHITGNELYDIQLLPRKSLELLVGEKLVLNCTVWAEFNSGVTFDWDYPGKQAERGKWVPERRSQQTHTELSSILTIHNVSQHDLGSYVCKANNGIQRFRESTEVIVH
In short: as §1

VEGFR-1-Fc = molecular target: T3, VEGFR-1-Fc (UniProt P17948 27-338)
T3 construct: domain: first three Ig domains; expressed in Drosophila S2 cells, purified on Protein A sepharose; also called VEGFR-1-Fc fusion protein; not shown: Fc fragment from the Signal-pIgPlus vector
T3 sequence (P17948 27-338): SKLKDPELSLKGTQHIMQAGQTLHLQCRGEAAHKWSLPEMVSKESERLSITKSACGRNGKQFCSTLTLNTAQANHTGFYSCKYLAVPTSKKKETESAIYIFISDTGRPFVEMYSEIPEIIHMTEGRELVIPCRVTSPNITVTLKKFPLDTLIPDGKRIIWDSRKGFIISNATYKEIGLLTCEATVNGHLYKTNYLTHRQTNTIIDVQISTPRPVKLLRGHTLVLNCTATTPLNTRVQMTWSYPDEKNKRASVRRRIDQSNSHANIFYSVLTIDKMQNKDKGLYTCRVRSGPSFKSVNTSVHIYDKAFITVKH
In short: as §1

Measured: binding result

T1 sequence (P35968 20-322): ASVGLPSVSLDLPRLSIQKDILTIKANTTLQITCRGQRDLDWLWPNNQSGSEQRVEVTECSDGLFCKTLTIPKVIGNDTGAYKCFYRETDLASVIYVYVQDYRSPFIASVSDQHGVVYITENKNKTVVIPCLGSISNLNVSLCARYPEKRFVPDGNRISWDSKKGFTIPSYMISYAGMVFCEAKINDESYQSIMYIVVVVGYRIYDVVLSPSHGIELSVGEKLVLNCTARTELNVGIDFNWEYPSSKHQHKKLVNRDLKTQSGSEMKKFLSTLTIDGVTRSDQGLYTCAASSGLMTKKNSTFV

B1: 61-2 (ligand)
chain: GQNHHEVVKFMDVYQRSYCHPREVCIDVGKEYPDEIEYIFKPSCVPLMRCGGCCNDEGLECMNTSTSYLSKTLFEIKPHQGQHIGEMSFLQHNKCECRPKKD
no binding: all assays above

B2: 53-11 (ligand)
chain: AHYNTEILKSIDNEWRKTQCMPIETLVDIFQEYPDEIEYIFKPPCVSVYRCGGCCNSEGLQCVPTEESNITMQIMRITVPLSQGPKPVTISFLQHNKCECRPKKD
no binding: all assays above

B3: 53-15 (ligand)
chain: AHYNTEILKSIDNEWRKTQCMPIETLVDIFQEYPDEIEYIFKPPCVSVYRCGGCCNSEGLQCVPTEESNITMQIMRITVPLSQGPKPVTISFANHTSCRCMSKLD
no binding: all assays above

B4: 53-13 (ligand)
chain: AHYNTEILKSIDNEWRKTQCMPIETLVDIFQEYPDEIEYIFKPPCVSVYRCGGCCNDEGLECVPTEESNITMQIMRITVPLSQGPKPVTISFANHTSCRCMSKLD
no binding: all assays above

B5: 62-4 (ligand)
chain: GQNHHEVVKFMDVYQRSYCHPREVCIDVGKEFGVATNTFFKPPCVSVYRCGGCCNSEGLQCMNTSTSYLSKTLFEIKPHQGQHIGEMSFLQHNKCECRPKKD
no binding: all assays above

B6: 61-10 (ligand)
chain: GQNHHEVVKFMDVYQRSYCHPREVCIDVGKEYPDEIEYIFKPSCVPLMRCGGCCNDEGLECMNTSTSYLSKTLFEITVPLSQGPKPVTISFLQHNKCECRPKKD
no binding: all assays above

B7: 61-12 (ligand)
chain: GQNHHEVVKFMDVYQRSYCHPREVCIDVGKEYPDEIEYIFKPSCVPLMRCGGCCNSEGLQCMNTSTSYLSKTLFEITVPLSQGPKPVTISFLQHNKCECRPKKD
no binding: all assays above

B8: 61-16 (ligand)
chain: GQNHHEVVKFMDVYQRSYCHPREVCIDVGKEYPDEIEYIFKPSCVPLMRCGGCCNSEGLQCMNTSTSYLSKTLFEITVPLSQGPKPVTISFANHTSCRCMSKLD
no binding: all assays above

B9: 63-10 (ligand)
chain: GQNHHEVVKFMDVYQRSYCHPREVCIDVGKEYPDEIEYIFKPPCVSVYRCGGCCNDEGLECMNTSTSYLSKTLFEITVPLSQGPKPVTISFLQHNKCECRPKKD
no binding: all assays above

B10: 71-1 (ligand)
chain: GQNHHEVVKSIDNEWRKTQCMPREVCIDVGKEYPDEIEYIFKPSCVPLMRCGGCCNDEGLECVPTEESNITMQIMRIKPHQGQHIGEMSFLQHNKCECRPKKD
no binding: all assays above

B11: 71-7 (ligand)
chain: GQNHHEVVKSIDNEWRKTQCMPREVCIDVGKEYPDEIEYIFKPSCVPLMRCGGCCNSEGLQCVPTEESNITMQIMRIKPHQGQHIGEMSFANHTSCRCMSKLD
no binding: all assays above

B12: 71-3 (ligand)
chain: GQNHHEVVKSIDNEWRKTQCMPREVCIDVGKEYPDEIEYIFKPSCVPLMRCGGCCNSEGLQCVPTEESNITMQIMRIKPHQGQHIGEMSFLQHNKCECRPKKD
no binding: all assays above

B13: 71-5 (ligand)
chain: GQNHHEVVKSIDNEWRKTQCMPREVCIDVGKEYPDEIEYIFKPSCVPLMRCGGCCNDEGLECVPTEESNITMQIMRIKPHQGQHIGEMSFANHTSCRCMSKLD
no binding: all assays above

B14: 22-1 (ligand)
chain: AHYNTEILKSIDNEWRKTQCMPREVCIDVGKEFGVATNTFFKPPCVSVYRCGGCCNDEGLECVPTEESNITMQIMRIKPHQGQHIGEMSFLQHNKCECRPKKDLVFEQKLISEEDLNSAVDHHHHHH
no binding: all assays above

B15: 62-3 (ligand)
chain: GQNHHEVVKFMDVYQRSYCHPREVCIDVGKEFGVATNTFFKPPCVSVYRCGGCCNSEGLQCVPTEESNITMQIMRIKPHQGQHIGEMSFLQHNKCECRPKKD
no binding: all assays above

B16: 62-7 (ligand)
chain: GQNHHEVVKFMDVYQRSYCHPREVCIDVGKEFGVATNTFFKPPCVSVYRCGGCCNSEGLQCVPTEESNITMQIMRIKPHQGQHIGEMSFANHTSCRCMSKLD
no binding: all assays above

B17: 62-5 (ligand)
chain: GQNHHEVVKFMDVYQRSYCHPREVCIDVGKEFGVATNTFFKPPCVSVYRCGGCCNDEGLECVPTEESNITMQIMRIKPHQGQHIGEMSFANHTSCRCMSKLD
no binding: all assays above

B18: 62-9 (ligand)
chain: GQNHHEVVKFMDVYQRSYCHPREVCIDVGKEFGVATNTFFKPPCVSVYRCGGCCNDEGLECVPTEESNITMQIMRITVPLSQGPKPVTISFLQHNKCECRPKKD
no binding: all assays above

B19: 63-5 (ligand)
chain: GQNHHEVVKFMDVYQRSYCHPREVCIDVGKEYPDEIEYIFKPPCVSVYRCGGCCNDEGLECVPTEESNITMQIMRIKPHQGQHIGEMSFANHTSCRCMSKLD
no binding: all assays above

B20: 71-2 (ligand)
chain: GQNHHEVVKSIDNEWRKTQCMPREVCIDVGKEYPDEIEYIFKPSCVPLMRCGGCCNDEGLECMNTSTSYLSKTLFEIKPHQGQHIGEMSFLQHNKCECRPKKD
no binding: all assays above

B21: 71-8 (ligand)
chain: GQNHHEVVKSIDNEWRKTQCMPREVCIDVGKEYPDEIEYIFKPSCVPLMRCGGCCNSEGLQCMNTSTSYLSKTLFEIKPHQGQHIGEMSFANHTSCRCMSKLD
no binding: all assays above

B22: 71-4 (ligand)
chain: GQNHHEVVKSIDNEWRKTQCMPREVCIDVGKEYPDEIEYIFKPSCVPLMRCGGCCNSEGLQCMNTSTSYLSKTLFEIKPHQGQHIGEMSFLQHNKCECRPKKD
no binding: all assays above

B23: 71-10 (ligand)
chain: GQNHHEVVKSIDNEWRKTQCMPREVCIDVGKEYPDEIEYIFKPSCVPLMRCGGCCNDEGLECMNTSTSYLSKTLFEITVPLSQGPKPVTISFLQHNKCECRPKKD
no binding: all assays above
